Source: IntAct's records for PubMed 25910212

B1: Tumor necrosis factor receptor superfamily member 13B (Homo sapiens), O14836-2 (parent)
chain: MSGLGRSRRGGRSRVDQEERWSLSCRKEQGKFYDHLLRDCISCASICGQHPKQCAYFCENKLRSPVNLPPELRRQRSGEVENNSDNSGRYQGLEHRGSEASPALPGLKLSADQVALVYSTLGLCLCAVLCCFLVAVACFLKKRGDPCSCQPRSRPRQSPAKSSQDHAMEAGSPVSTSPEPVETCSFCFPECRAPTQESAVTPGTPDPTCAGRWGCHTRTTVLQPCPHIPDSGLGIVCVPAQEGGPGA
B2: EGF-containing fibulin-like extracellular matrix protein 1 (Homo sapiens), Q12805 (parent)
chain: MLKALFLTMLTLALVKSQDTEETITYTQCTDGYEWDPVRQQCKDIDECDIVPDACKGGMKCVNHYGGYLCLPKTAQIIVNNEQPQQETQPAEGTSGATTGVVAASSMATSGVLPGGGFVASAAAVAGPEMQTGRNNFVIRRNPADPQRIPSNPSHRIQCAAGYEQSEHNVCQDIDECTAGTHNCRADQVCINLRGSFACQCPPGYQKRGEQCVDIDECTIPPYCHQRCVNTPGSFYCQCSPGFQLAANNYTCVDINECDASNQCAQQCYNILGSFICQCNQGYELSSDRLNCEDIDECRTSSYLCQYQCVNEPGKFSCMCPQGYQVVRSRTCQDINECETTNECREDEMCWNYHGGFRCYPRNPCQDPYILTPENRCVCPVSNAMCRELPQSIVYKYMSIRSDRSVPSDIFQIQATTIYANTINTFRIKSGNENGEFYLRQTSPVSAMLVLVKSLSGPREHIVDLEMLTVSSIGTFRTSSVLRLTIIVGPFSF
B3: Arylsulfatase A (Homo sapiens), P15289 (parent)
chain: MGAPRSLLLALAAGLAVARPPNIVLIFADDLGYGDLGCYGHPSSTTPNLDQLAAGGLRFTDFYVPVSLCTPSRAALLTGRLPVRMGMYPGVLVPSSRGGLPLEEVTVAEVLAARGYLTGMAGKWHLGVGPEGAFLPPHQGFHRFLGIPYSHDQGPCQNLTCFPPATPCDGGCDQGLVPIPLLANLSVEAQPPWLPGLEARYMAFAHDLMADAQRQDRPFFLYYASHHTHYPQFSGQSFAERSGRGPFGDSLMELDAAVGTLMTAIGDLGLLEETLVIFTADNGPETMRMSRGGCSGLLRCGKGTTYEGGVREPALAFWPGHIAPGVTHELASSLDLLPTLAALAGAPLPNVTLDGFDLSPLLLGTGKSPRQSLFFYPSYPDEVRGVFAVRTGKYKAHFFTQGSAHSDTTADPACHASSSLTAHEPPLLYDLSKDPGENYNLLGGVAGATPEVLQALKQLQLLKAQLDAAVTFGPSQVARGEDPALQICCHPGCTPRPACCHCPDPHA
partner: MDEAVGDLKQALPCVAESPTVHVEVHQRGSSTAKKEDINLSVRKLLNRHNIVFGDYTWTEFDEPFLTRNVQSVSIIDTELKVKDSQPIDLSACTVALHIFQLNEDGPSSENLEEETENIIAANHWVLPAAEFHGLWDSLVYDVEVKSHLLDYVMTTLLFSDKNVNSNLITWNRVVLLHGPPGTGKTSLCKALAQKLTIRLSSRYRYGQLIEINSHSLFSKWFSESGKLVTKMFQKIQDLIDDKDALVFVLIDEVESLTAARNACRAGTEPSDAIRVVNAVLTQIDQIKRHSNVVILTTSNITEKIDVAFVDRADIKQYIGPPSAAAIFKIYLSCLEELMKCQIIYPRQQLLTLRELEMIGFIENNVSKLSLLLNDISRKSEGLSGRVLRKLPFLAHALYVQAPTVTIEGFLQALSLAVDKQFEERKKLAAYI
B4: Hepatocyte nuclear factor 4-alpha (Homo sapiens), P41235-3 (parent)
chain: MRLSKTLVDMDMADYSAALDPAYTTLEFENVQVLTMGNDTSPSEGTNLNAPNSLGVSALCAICGDRATGKHYGASSCDGCKGFFRRSVRKNHMYSCRFSRQCVVDKDKRNQCRYCRLKKCFRAGMKKEAVQNERDRISTRRSSYEDSSLPSINALLQAEVLSRQITSPVSGINGDIRAKKIASIADVCESMKEQLLVLVEWAKYIPAFCELPLDDQVALLRAHAGEHLLLGATKRSMVFKDVLLLGNDYIVPRHCPELAEMSRVSIRILDELVLPFQELQIDDNEYAYLKAIIFFDPDAKGLSDPGKIKRLRSQVQVSLEDYINDRQYDSRGRFGELLLLLPTLQSITWQMIEQIQFIKLFGMAKIDNLLQEMLLGGPCQAQEGRGWSGDSPGDRPHTVSSPLSSLASPLCRFGQVA
B5: DNA mismatch repair protein Mlh1 (Homo sapiens), P40692 (parent)
chain: MSFVAGVIRRLDETVVNRIAAGEVIQRPANAIKEMIENCLDAKSTSIQVIVKEGGLKLIQIQDNGTGIRKEDLDIVCERFTTSKLQSFEDLASISTYGFRGEALASISHVAHVTITTKTADGKCAYRASYSDGKLKAPPKPCAGNQGTQITVEDLFYNIATRRKALKNPSEEYGKILEVVGRYSVHNAGISFSVKKQGETVADVRTLPNASTVDNIRSIFGNAVSRELIEIGCEDKTLAFKMNGYISNANYSVKKCIFLLFINHRLVESTSLRKAIETVYAAYLPKNTHPFLYLSLEISPQNVDVNVHPTKHEVHFLHEESILERVQQHIESKLLGSNSSRMYFTQTLLPGLAGPSGEMVKSTTSLTSSSTSGSSDKVYAHQMVRTDSREQKLDAFLQPLSKPLSSQPQAIVTEDKTDISSGRARQQDEEMLELPAPAEVAAKNQSLEGDTTKGTSEMSEKRGPTSSNPRKRHREDSDVEMVEDDSRKEMTAACTPRRRIINLTSVLSLQEEINEQGHEVLREMLHNHSFVGCVNPQWALAQHQTKLYLLNTTKLSEELFYQILIYDFANFGVLRLSEPAPLFDLAMLALDSPESGWTEEDGPKEGLAEYIVEFLKKKAEMLADYFSLEIDEEGNLIGLPLLIDNYVPPLEGLPIFILRLATEVNWDEEKECFESLSKECAMFYSIRKQYISEESTLSGQQSEVPGSIPNSWKWTVEHIVYKALRSHILPPKHFTEDGNILQLANLPDLYKVFERC

Variants of: B1
Settings: with sgta_human SGTA

Row | Variant | effect of a mutation on the interaction
1 | L125R | disrupting interaction strength
2 | C58R | with no effect
3 | V174A | with no effect
4 | K142M | with no effect
5 | P205L | with no effect
6 | V200F | with no effect

Variants of: B2
Settings: with sgta_human SGTA

Row | Variant | effect of a mutation on the interaction
7 | R345W | with no effect

Variants of: B2
Settings: with meox2_human MEOX2, P50222

Row | Variant | effect of a mutation on the interaction
8 | R345W | with no effect

Variants of: B3
Settings: with pch2_human TRIP13, Q15645

Row | Variant | effect of a mutation on the interaction
9 | N350S | with no effect
10 | Y201C | with no effect

Variants of: B4
Settings: with plpp2_human PLPP2, O43688

Row | Variant | effect of a mutation on the interaction
11 | C102W | disrupting interaction strength

Variants of: B4
Settings: with if1ay_human EIF1AY

Row | Variant | effect of a mutation on the interaction
12 | C102W | disrupting interaction strength

Variants of: B4
Settings: with dmd_human DMD

Row | Variant | effect of a mutation on the interaction
13 | C102W | disrupting interaction strength

Variants of: B5
Settings: with AP2B1, P63010-2

Row | Variant | effect of a mutation on the interaction
14 | S44F | disrupting interaction strength
15 | R472I | with no effect
16 | G244D | with no effect

Variants of: B5
Settings: with ccd33_human CCDC33, Q8N5R6

Row | Variant | effect of a mutation on the interaction
17 | S44F | disrupting interaction strength
18 | R472I | with no effect
19 | G244D | disrupting interaction strength

Variants of: B5
Settings: with taso2_human TASOR2, Q5VWN6

Row | Variant | effect of a mutation on the interaction
20 | S44F | disrupting interaction strength
21 | R472I | with no effect
22 | G244D | disrupting interaction strength
